The text below walks through data of publication PMC6957250 (Experimental and molecular pathology, 2016).

Read-outs that look alike come from different tables or passages of the source.

Common to all, as to assay: ELISA
(In an ELISA, binding on a coated surface is turned into a signal by an enzyme label.)

The target in experiment [1] is T1, recombinant CD16A-mFc (CD16A-158V extracellular domain fused to monomeric Fc) (Homo sapiens, allotype 158V, UniProt P08637, strain).
Experiment [2] deals with recombinant CD32A ectodomain (Homo sapiens (assumed), UniProt P12318).
Experiment [3] addresses recombinant CD64A ectodomain (Homo sapiens (assumed), UniProt P12314).
Experiment [4] deals with recombinant CD32B ectodomain (Homo sapiens (assumed), UniProt P31994).
Experiment [5] addresses recombinant CD16B ectodomain (Homo sapiens, UniProt O75015).
The target in experiment [6] is CD16A-158F-mFc (CD16A carrying the 158F isoform, monomeric Fc fusion) (Homo sapiens, allotype 158F, UniProt P08637).
For experiment [7], the target named is T1, recombinant CD16A-mFc (CD16A-158V …). This is another data set of the same source.

T1 sequence (P08637 17-208, change not shown): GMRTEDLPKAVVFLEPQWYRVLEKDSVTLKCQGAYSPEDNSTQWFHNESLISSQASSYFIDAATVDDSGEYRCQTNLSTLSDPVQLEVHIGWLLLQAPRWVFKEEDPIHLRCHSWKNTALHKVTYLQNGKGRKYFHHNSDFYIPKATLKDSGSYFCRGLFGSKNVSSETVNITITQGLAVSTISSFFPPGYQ
recombinant CD16B ectodomain, sequence (O75015 whole entry, looked up, the tested form may be a part, canonical isoform): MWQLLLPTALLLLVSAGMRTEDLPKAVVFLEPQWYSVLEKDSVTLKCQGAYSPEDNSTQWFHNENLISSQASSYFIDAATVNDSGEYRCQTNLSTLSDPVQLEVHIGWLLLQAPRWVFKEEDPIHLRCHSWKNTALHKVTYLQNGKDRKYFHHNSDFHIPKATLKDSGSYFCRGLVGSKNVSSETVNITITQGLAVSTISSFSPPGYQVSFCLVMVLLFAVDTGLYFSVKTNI
CD16A-158F-mFc (CD16A carrying the 158F isoform, monomeric Fc fusion), sequence (P08637 17-208): as the sequence (P08637 17-208, change not shown) above
recombinant CD32A ectodomain, sequence (P12318 34-217): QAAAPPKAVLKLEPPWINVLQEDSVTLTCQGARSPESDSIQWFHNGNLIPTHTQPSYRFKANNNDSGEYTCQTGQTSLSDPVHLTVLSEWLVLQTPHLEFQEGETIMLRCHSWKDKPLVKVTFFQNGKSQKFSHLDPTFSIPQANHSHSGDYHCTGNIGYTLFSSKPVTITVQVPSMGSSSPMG
recombinant CD64A ectodomain, sequence (P12314 16-292): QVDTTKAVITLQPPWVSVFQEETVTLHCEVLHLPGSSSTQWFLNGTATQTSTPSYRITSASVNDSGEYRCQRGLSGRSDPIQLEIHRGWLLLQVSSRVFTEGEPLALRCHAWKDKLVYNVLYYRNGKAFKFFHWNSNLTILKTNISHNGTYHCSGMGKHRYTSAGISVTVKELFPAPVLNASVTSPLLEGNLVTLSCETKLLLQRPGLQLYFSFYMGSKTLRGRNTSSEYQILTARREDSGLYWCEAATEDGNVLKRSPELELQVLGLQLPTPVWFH
recombinant CD32B ectodomain, sequence (P31994 43-217): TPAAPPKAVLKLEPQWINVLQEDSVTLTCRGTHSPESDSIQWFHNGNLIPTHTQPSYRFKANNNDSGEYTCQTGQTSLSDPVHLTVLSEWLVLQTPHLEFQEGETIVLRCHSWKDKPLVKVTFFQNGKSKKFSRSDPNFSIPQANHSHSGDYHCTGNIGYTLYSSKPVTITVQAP

B1: antibody domain D6 (VHH)
VH: EVQLVESGGGLVQPGGSLRLSCAASGFTFSNYGMSWVRQAPGKGLEWIGSIYYSGGSTNYNPSLKGSLVISRDNSKNTLYLQMNSLAEDTATYYCARESIDYWGQGTLVTVSS
As for B1, the values for the EC50 in experiment [1] and in experiment [7] were roughly 60 nM and 4 nM, respectively. Besides, the binding result in experiment [2] is reported as “no binding”; in experiment [3] it was “no binding”; in experiment [4], “no binding”; in experiment [5], “no binding”; in experiment [6], “binds”.

B2: antibody domain E11 (VHH)
VH: EVQLVESGGGLVQPGGSLRLSCAASGFTFSSYGMSWVRQAPGKGLEWIGEVNHSGGSTNYNPSLKGSFVISRDNSKNTLYLQMNSLAEDTAVYYCARVGSFDFWGQGTLVTVSS
Take B2: the binding result is listed as “no binding” in experiment [2]; “no binding” in experiment [3]; “no binding” in experiment [4]; “no binding” in experiment [5]; “binds” in experiment [6]. The half-maximal effective concentration (EC50) (in general, the concentration giving half of the maximal effect) in experiment [7] was determined as 8 nM.
